The labels stand for the following.
B1: CPEB3 Ribozyme (parent)
chain: GGGGGCCACAGCAGAAGCGUUCACGUCGCGGCCCCUGUCAGAUUCUGGUGAAUCUGCGAAUUCUGCUGU

Here are results for 167 variants from the RNAGym collection of RNA variant scans (doi:10.7554/elife.80360).

The variants in the data set derive from B1. Briefly: self-cleavage, relative activity (ratio to wild type); higher = more cleavage; co-transcriptional.
In the case of A42C C66U, the self-cleavage was 0.96. The value for G41C U64G was 0.426; that for G41C U64A was 0.369. For U43A U55A the value was 0.257; for A42U C66U, 0.876; for A42U C66A, 0.461. As for A42C U44A, the self-cleavage was 0.83. For A42C U44G the value was 0.816; for A42C U44C, 0.736; for A42C G56C, 0.325.

Take A42C G56U: the self-cleavage was 0.568. For A42C U49A the value was 0.974; for A42C U49G, 0.964. For G41U U44A the value was 0.339; for G41U U44G, 0.336.

For G41C G58A, the self-cleavage came to 0.772. For A42U U55G the value was 0.276; for A42U U55A, 0.485. With G41U U67C, the self-cleavage is 0.872. For A42U U53A the value was 1.02; for A42U U53G, 1; for G41C G48C, 0.869. The value for G41C G48U was 0.966; that for A42U C63U was 0.876; that for A42G U46A was 0.935. The value for A42G U46G was 0.941. A42C C45G: the self-cleavage amounted to 0.819. A42C C45A: the self-cleavage amounted to 0.851. The value for A42C C45U was 0.937; that for G41U G56A was 0.581; that for A42G U49C was 0.901.

With A42G U49G, the self-cleavage stood at 0.96. For A42G U49A, the self-cleavage is 0.938. For A42C G68A the value was 1.

Consider A42C G68C, for which the self-cleavage was 0.963. For A42C G68U the value was 1.01; for G41C G47A, 0.904. For G41U U49C the value was 0.849; for A42U U61A, 0.744.

As for A42U U61G, the self-cleavage amounted to 0.448. For A42U G47C the value was 0.993; for A42U G47U, 1.02; for A42U G48C, 0.947. For A42U G48A the value was 0.968; for G41U U53C, 0.364; for G41U U53G, 0.604. The value for G41C U62G was 0.363. Regarding G41C U62C, the self-cleavage amounted to 0.365.

Take A42G G65A: the self-cleavage is 0.639. The value for A42G G65U was 0.605; that for A42G G65C was 0.508. For A42C U61C the value was 0.477. For A42C U61A the value was 0.742; for G41C G68C, 0.902; for G41C G68U, 0.933. With G41C G68A, the self-cleavage came out at 0.927. For G41U G47U the value was 0.999; for G41U G47C, 0.967.

As to A42G G58C, the self-cleavage was found to be 0.894. For the variant A42G G58A, the self-cleavage is 0.951.

For A42U A52C, the self-cleavage stood at 0.945. A42U A52U: the self-cleavage came out at 0.986.

Consider A42U A52G, for which the self-cleavage was 0.88. For G41C U55C the value was 0.394. For A42U A59G the value was 0.965; for G41A U61A, 0.463.

For G41A U61G, the self-cleavage was found to be 0.331. The value for A42U C54G was 0.56; that for A42U C54A was 0.834. For A42G A51U the value was 0.799; for A42G A51C, 0.672. For G41U A60G the value was 0.612. With G41U A60U, the self-cleavage stood at 0.374.

Turning to G41U G48C, the self-cleavage is 0.952. As for G41U G48U, the self-cleavage is 0.99. The value for G41C U44G was 0.317; that for G41C U44A was 0.377; that for G41C U44C was 0.342. The value for A42U was 0.965. For A42G the value was 0.951; for A42C, 0.961. Regarding G41U U55G, the self-cleavage was found to be 0.324.

For G41C U53A, the self-cleavage came to 0.463. For G41C U53C the value was 0.283; for A42C A52U, 0.96. For A42C A52C the value was 0.803; for A42C A52G, 0.919; for A42G A60G, 0.85. The value for A42G A59G was 0.81; that for A42G A59U was 0.735. Regarding A42G A59C, the self-cleavage was 0.577. The value for A42G A52C was 0.854; that for A42G A52U was 0.718; that for A42G U61G was 0.359.

On to U43A G65A, for which the self-cleavage stood at 0.49.

Take U43A G65U: the self-cleavage came to 0.392.

As for U43A G65C, the self-cleavage was found to be 0.349. For G41A G68U the value was 0.913; for G41A G68C, 0.881; for U43A G58U, 0.946.

Turning to U43A G58A, the self-cleavage turned out to be 0.929.

In the case of G41A U46C, the self-cleavage amounted to 0.706. Take G41A U46A: the self-cleavage came out at 0.863. For G41U U62A the value was 0.506; for G41U U62C, 0.384.

As for U43A U61C, the self-cleavage stood at 0.334. The value for G41U G58U was 0.939; that for G41U G58C was 0.94. The value for G41U G58A was 0.935; that for A42G U69C was 1.04.

Take A42G U69G: the self-cleavage came to 1.03. For G41U U43A, the self-cleavage was 0.3. The value for G41U U43G was 0.267; that for G41U U43C was 0.357; that for G41C C45A was 0.34. The value for G41C C45U was 0.501; that for G41C C45G was 0.38. For G41A U55A the value was 0.596; for G41A U55G, 0.379; for U43A C63G, 0.45. Turning to U43A C63A, the self-cleavage worked out at 0.504. For U43A U53G the value was 0.773; for G41C C63A, 0.296.

For the variant A42G C54U, the self-cleavage amounted to 0.799. The value for U43A U49C was 0.939; that for U43A U49A was 0.944; that for U43A U49G was 0.955.

Turning to G41U G50C, the self-cleavage came out at 0.54. For A42U G65A the value was 0.661; for A42U G65U, 0.481. For A42U G65C the value was 0.433; for U43A U44C, 0.987. For U43A U44A the value was 0.888. As to U43A U44G, the self-cleavage came out at 0.957. The value for G41A G65U was 0.379; that for G41A G65C was 0.261.

On to A42G U67A, for which the self-cleavage is 0.86. For A42G U67C the value was 0.957; for A42G U67G, 0.897; for A42C U62C, 0.659. For A42C U62A the value was 0.673. On to A42C U62G, for which the self-cleavage worked out at 0.757.

As for G41A U62C, the self-cleavage amounted to 0.383. The value for G41A U62A was 0.474; that for G41A U62G was 0.422; that for G41C U69C was 1.01.

For the variant G41C U69G, the self-cleavage amounted to 0.959. For A42C G50C the value was 0.858; for A42C G50A, 0.952; for G41C G65A, 0.426. The value for G41C G65U was 0.327. For the variant G41U U64C, the self-cleavage turned out to be 0.382. For G41U U64G the value was 0.441. For G41U U64A, the self-cleavage is 0.501.

In the case of A42G U62C, the self-cleavage was determined as 0.647. Consider A42U U62G, for which the self-cleavage amounted to 0.738. Regarding A42U U62C, the self-cleavage came to 0.721. Turning to A42U U62A, the self-cleavage came out at 0.809. With A42U U46C, the self-cleavage is 0.781. The value for A42C U55C was 0.328; that for A42C U55A was 0.595; that for A42C U55G was 0.285. With A42G G56A, the self-cleavage is 0.761. For A42G G56C the value was 0.475. For U43A A52U the value was 0.926; for A42U G58C, 0.97. For A42U G58A the value was 0.923.
